In article PMC10349104:
Several values for one entry are separate records, joined by “and”; a condition that tells them apart may be missing. Equal values may be shown once. Read-outs that look alike come from different tables or passages of the source.

Tests used:
[1] = molecular target: EVA-A(L39P) (Amblyomma americanum); test: SPR
[2] = molecular target: EVA-A(DN) (Amblyomma americanum); test: SPR
[3] = molecular target: EVA-A(C8) (Amblyomma americanum); test: SPR
[4] = molecular target: EVA-A(Y44A) (Amblyomma americanum); test: SPR
[5] = molecular target: EVA-AAM1001 (Amblyomma americanum); test: SPR
EVA-4, P0C8E9 = molecular target: T1, EVA-4, P0C8E9; test: not stated; Kd of EVA-4 for human chemokines, three readings (source data of Supplementary Fig. 7); method and conditions not told for EVA-4
T1 chain: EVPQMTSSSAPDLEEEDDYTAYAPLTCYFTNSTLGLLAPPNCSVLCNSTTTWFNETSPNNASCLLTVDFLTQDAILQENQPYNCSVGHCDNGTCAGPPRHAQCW

[6] = remark: other sources report otherwise

B1: CCL14 (ligand)
chain: TKTESSSRGPYHPSECCFTYTTYKIPRQRIMDYYETNSQCSKPGIVFITKRGHSVCTNPSDKWVQDYIKDMKEN
modifications: not checked
- Kd [1]: 0.0403 nM and 0.0431 nM and 0.0505 nM
- Kd [2]: 0.12 nM and 0.109 nM and 0.11 nM
- koff [2]: 8.54e-05 s⁻¹ and 7.6e-05 s⁻¹ and 7.69e-05 s⁻¹
- kon [2]: 714000 1/(M s) and 697000 1/(M s) (2×)
- Kd [3]: 1.09 nM and 1.16 nM and 1.66 nM
- koff [3]: 0.000525 s⁻¹ and 0.00045 s⁻¹ and 0.000476 s⁻¹
- kon [3]: 482000 M⁻¹ s⁻¹ and 389000 M⁻¹ s⁻¹ and 288000 M⁻¹ s⁻¹
- Kd [4]: 0.12 nM and 0.125 nM and 0.0725 nM
- koff [4]: 6.21e-05 s⁻¹ and 5.76e-05 s⁻¹ and 3.35e-05 s⁻¹
- kon [4]: 519000 M⁻¹ s⁻¹ and 462000 M⁻¹ s⁻¹
- Kd [5]: 0.0551 nM and 0.0372 nM and 0.0569 nM
- koff [5]: 6.24e-05 s⁻¹ and 5.52e-05 s⁻¹ and 6.41e-05 s⁻¹
- kon [5]: 1.1e+06 1/(M s) (2×) and 1.5e+06 1/(M s)
- Kd (EVA-4, P0C8E9): 0.765 nM and 1.17 nM and 1.14 nM

B2: CCL15 (ligand)
chain: QFTNDAETELMMSKLPLENPVVLNSFHFAADCCTSYISQSIPCSLMKSYFETSSECSKPGVIFLTKKGRQVCAKPSGPGVQDCMKKLKPYSI
modifications: not checked
- Kd [1, 6]: 26.9 nM and 23 nM and 29.8 nM
- koff [1, 6]: 0.0026 s⁻¹ and 0.00246 s⁻¹ and 0.00303 s⁻¹
- kon [1, 6]: 96500 M⁻¹ s⁻¹ and 107000 M⁻¹ s⁻¹ and 101000 M⁻¹ s⁻¹
- Kd [2, 6]: 35.6 nM and 33.6 nM and 33 nM
- koff [2, 6]: 0.00216 s⁻¹ and 0.00209 s⁻¹ and 0.00218 s⁻¹
- kon [2, 6]: 60800 M⁻¹ s⁻¹ and 62100 M⁻¹ s⁻¹ and 66000 M⁻¹ s⁻¹
- Kd [3, 6]: 714 nM and 467 nM and 550 nM
- koff [3, 6]: 0.0149 s⁻¹ and 0.0104 s⁻¹ and 0.013 s⁻¹
- kon [3, 6]: 20800 M⁻¹ s⁻¹ and 22300 M⁻¹ s⁻¹ and 23700 M⁻¹ s⁻¹
- Kd [4, 6]: 80.9 nM and 215 nM and 188 nM
- koff [4, 6]: 0.00852 s⁻¹ and 0.0138 s⁻¹ and 0.0129 s⁻¹
- kon [4, 6]: 105000 M⁻¹ s⁻¹ and 64300 M⁻¹ s⁻¹ and 68500 M⁻¹ s⁻¹
- Kd [5, 6]: 1.7 nM and 1.77 nM and 1.85 nM
- koff [5, 6]: 0.000308 s⁻¹ and 0.000311 s⁻¹ and 0.000314 s⁻¹
- kon [5, 6]: 182000 M⁻¹ s⁻¹ and 175000 M⁻¹ s⁻¹ and 170000 M⁻¹ s⁻¹
- Kd (EVA-4, P0C8E9): 287 nM and 216 nM and 218 nM

B3: CCL4, P13236 24-92 (ligand)
chain: APMGSDPPTACCFSYTARKLPRNFVVDYYETSSLCSQPAVVFQTKRSKQVCADPSESWVQEYVYDLELN
- Kd (EVA-4, P0C8E9; [6]): 212 nM and 126 nM and 137 nM
